Measurements from patent US20250304718A1, “HER2 SINGLE DOMAIN ANTIBODY AND USES THEREOF” (Institut Curie, priority 2024, published 2025).

Assays:
[1] = biological target: T1, HER2 (Receptor tyrosine-protein kinase erbB-2) on the surface of SKBR3 cells (human, UniProt P04626 23-1255); assay: flow cytometry (FACS) on SKBR3 cells overexpressing HER2; MCF10A HER2-negative cells as control
T1 construct: Endogenous HER2 overexpressed on the SKBR3 breast tumor cell line; also called CD340
Method: (§1) From inventors humanized sdAb libraries, a phage display subtraction selection system was developed to identify sdAbs that selectively detect the surface of breast tumor cells. The SKBR3 target cell line was used because it overexpresses the HER2 protein on its surface, while the MCF10A cell line, derived from non-cancerous and HER2-negative mammary gland cells, was used to pre-adsorb the libraries. After 3 successive cycles of selection on these cell lines, sdAb clones were analyzed by flow cytometry (FACS) for their binding capacity on SKBR3 cells and MCF10A cells.

[2] = biological target: T2, Her2 recombinant ectodomain fused to a Rabbit Fc domain (human; rabbit, UniProt P04626 23-652); assay: ELISA on recombinant Her2 ectodomain-Rabbit Fc
T2 construct: also called Her2 ectodomain-Rabbit Fc; not shown: Rabbit Fc domain

MCF10A cells = assay: FACS binding of sdAb on MCF10A cells; conditions: MCF10A non-cancerous, HER2-negative; data not shown
Method: as §1
(§2) A human VH anti-HER2 was selected for further experiments.

SKBR3 cells = assay: FACS binding of sdAb on SKBR3 cells; conditions: SKBR3 overexpresses HER2 on its surface; data not shown
Method: as §1, §2

[3] = test system: Jurkat-derived clone bearing a NFAT-YFP gene reporter; assay: Reporter cell system for CAR-T cell activity (FACS); format: cell-based; conditions: sdAb in second generation CAR (CD8 TM, 4-1BB, CD3z)
Excerpt: The anti-HER2 sdAb of the invention was also validated for use in CAR-T format. The model of CAR chosen is the one used to treat diffuse lymphomas (Linguanti F, Abenavoli E M, Berti V, Lopci E. Metabolic Imaging in B-Cell Lymphomas during CAR-T Cell Therapy. Cancers (Basel). 2022 Sep. 27; 14(19):4700. doi: 10.3390/cancers14194700. PMID: 36230629; PMCID: PMC9562671). This anti-lymphoma CAR-T therapy called “second generation” comprises the transmembrane domain of CD8, a costimulation domain from 4-1BB and the CD3z signaling domain. In the case of Kymriah® targeting B lymphocytes, the binding module is an anti-CD19 scFv. In the construction of the invention, the anti-CD19 scFv was replaced by the anti-Her2 sdAb of the invention.
The inventors developed a reporter cell system allowing to identify CAR-T cell activity. It is based on a Jurkat-derived clone bearing a NFAT-YFP gene reporter activated by TCR clustering (Blanchard N. et al, The Journal of Immunology, 2004).

[4] = biological target: T3, Her2 recombinant ectodomain fused to a Rabbit Fc domain (Homo sapiens, UniProt P04626); assay: ELISA on Her2 recombinant ectodomain; format: binding; conditions: data not shown
T3 construct: validated by ELISA on Her2 recombinant ectodomain fused to a Rabbit Fc domain; Rabbit Fc domain
Excerpt: The anti-HER2 sdAb was afterward validated by ELISA on Her2 recombinant ectodomain fused to a Rabbit Fc domain (data not shown).

Row | Molecule | binding result [1] | binding result [2] | recognition on MCF10A cells in FACS (MCF10A cells) | recognition on SKBR3 cells in FACS (SKBR3 cells) | activation detected by FACS [3] | validation by ELISA [4]
1 | humanized anti-HER2 single domain antibody (sdAb) of the invention (VHH, Synthetic humanized/human VH single domain antibody (not a camelid VHH), selected by phage display on SKBR3 cells; also called VH anti-Her2; human VH anti-HER2) VHH: EVQLVESGGGLVQPGGSLRLSCAASGAFYKAYNMGWVRQAPGKGLEWVSAISATQGKWVYYADSVKGRFTISRDNSKNTVYLQMNSLRAEDTAVYYCAKLPISKKALYRGQGTLVTVSS | binds | binds | – | – | – | –
2 | anti-HER2 sdAb: fully humanized anti-HER2 VH single domain antibody, SEQ ID NO:2, CDRs SEQ ID NO:7-9 (protein) VHH: MAEVQLVESGGGLVQPGGSLRLSCAASGAFYKAYNMGWVRQAPGKGLEWVSAISATQGKWVYYADSVKGRFTISRDNSKNTVYLQMNSLRAEDTAVYYCAKLPISKKALYRGQGTLVTVSS | – | – | not on MCF10A cells | specific recognition | specific activation | validated
